Reference: patent publication US20170065702A1
Where two headings read alike, the source gives them in different places.

Tests used:
[1] = target: Marburg Ravn GP pin peptide … (Marburg virus, Ravn strain); experiment: pin peptide ELISA, pin printed as D6 beside … (SEQ ID NO: 195), read at 1 hour
[2] = target: Marburg Ravn GP pin peptide … (Marburg virus, Ravn strain); experiment: pin peptide ELISA, pin D4, supernatant diluted 1/5, read at 1 hour
[3] = target: Marburg Ravn GP pin peptide … (Marburg virus, Ravn strain); experiment: pin peptide ELISA, pin D5, supernatant diluted 1/5, read at 1 hour
[4] = target: Marburg Ravn GP pin peptide … (Marburg virus, Ravn strain)
[5] = target: Marburg Ravn GP pin peptide … (Marburg virus, Ravn strain); experiment: pin peptide ELISA, pin D6, supernatant diluted 1/5, read at 1 hour

B1: CAN54G2 (antibody, V domains shown)
VH: QVQLQQSGTELVRPGTSVKISCKASGYDFTNFWLGWIKQRPGHGLEWIGDIYPGGDNTYYNEKFKGKVTLTADKSSNTAYMQFSSLTSEDSAVYFCFMILYTLDYWGQGTSVTVSS
VL: not shown
**Q.** Which Absorbance (1 hour) [1] does the source give for B1 here?
**A.** 1.85 absorbance

B2: CAN30G2 (antibody, V domains shown)
VH: DVQLVESGGGLVQPGGSRKLSCTASGFTFSSFGMHWVRQAPEKGLEWVAYISSGSSKIYYADTVKGRFTISRDNPKNTLFLQMTSLRSEDTAMYYCARGWYEGAWFAYWGQGTLVTVSA
VL: DVLMTQTPLSLPVSLGDQASISCRSSQSIVHSNGDTYLEWYLQKPGQSPKLLIYKVSNRFSGVPDRFSGSGSGTDFTLRISRVEAEDLGVYYCFQGSHFPWTFGGGTKLEIK
**Q.** B2 was tested. Which Absorbance (1 hour) [2] did it give?
**A.** 0.848 absorbance

**Q.** And the Absorbance (1 hour) [3]?
**A.** 0.373 absorbance

B3: CAN30G4 (antibody, V domains shown)
VH: EVKLVESGGGLVKSGGSLKLSCAVSGFTFSTYAMSWVRQIPEKRLEWVATISNGGSYIYYSDSVKGRFTISRDNAKNTLYLQMSSLRSEDTAMYYCARHRESYRYDWFAYWGQGTLVTVSA
VL: DVLMTQTPLSLPVSLGDQASISCRSSQNIVHSDGNTYLEWYLQKPGQSPKLLIYKFSNRFSGVPDRFSGSGSGTDFTLKISRVEAEDLGVYYCFQGSHVPPTFGAGTKLELK
**Q.** Which results are given for B3?
**A.** Absorbance (1 hour) [4]: > 3.9 absorbance; Absorbance (1 hour) [3]: 1.97 absorbance

B4: CAN30G3 (antibody, V domains shown)
VH: QVQLKESGPGLVAPSQSLSITCTVSGFSLTDYGITWIRQPPGKGLEWLGVIWGGGSAYYNLVLKSRLSISKDNSKSQVFLKMNSLQTDDTAMYYCAKHRTLITTAMDYWGQGISVTVSS
VL: DVLMTQTPLSLPVSLGDQASISCRSSQNIVHSNGNTYLEWYLQKSGQSPKLLIYKVSNRFSGVPDRFSGSGSGTDFTLKISRVEAEDLGVYYCFQGSHFPWTFGGGTKLEIK
**Q.** With B4 as the binder, how does the Absorbance (1 hour) [3] read?
**A.** 1.84 absorbance

**Q.** And the Absorbance (1 hour) [5]?
**A.** 1.12 absorbance

B5: CAN30G5 (antibody, V domains shown)
VH: EVQLVESGGGLVQPKGSLKLSCAASGFAFNSYAMHWVCQAPGKGLEWVARIRIKSGNYATSYAGSVTDRFTVSRDDSQNLFYLQMNNLKTEDTAMYYCVREWEGAMDYWGQGTSVTVSS
VL: DIVLTQSPLSLPVSLGDQASISCRSSQSLVHSNGNTYLHWYLQKPGQSPNLLIYKVSNRFSGVPDRFSGSGSGTDFTLKISRVEAEDLGVYFCSQSTHVPWTFGGGTKLEIK
**Q.** For B5, which Absorbance (1 hour) [4] is on record?
**A.** > 3.9 absorbance

**Q.** What about the Absorbance (1 hour) [2] of the same binder?
**A.** 0.631 absorbance
